From patent US20220195015A1 (published 2022)
Substitutions are numbered along the chain they refer to.

B1: C535 (antibody, V domains shown)
VH: EVQLVESGGALVQPGRSLRLSCAASGFTFDDYAMHWVRQAPGKGLEWVSSISWNGVSIGYADSVRGRFTISRDNAKNSLYLQMNSLKIGDTAFYYCARGLDGSSSASPDSWGQGTLVTVSS
VL: DIQMTQSPSSVSASVGDRVTITCRASQGIGSWLAWYQQKPGKAPKLLIYLASSLQSGVPSRFSGSGSGTYFTLTISGLQPEDFATYYCQQGNSFPLTFGGGTKVEIK
B2: C537 (antibody, V domains shown)
VH: QLQLQESGPGLVKPSETLSLTCTVSGGAISSRNYHWGWIRQPPGKGLEWIGSIYYSGSTYYSPSLKSRVTISVDTSKNQFSLRLSSVTAADTAVYYCARLETSGWYTEDVFDIWGQGTMVTVSS
VL: DIQMTQSPSSLSASVGDRVTITCRASQSISSYLNWYQQKPGKAPKLLIYAASSLQSGVPSRFSGSGSGTDFTLTISSLLPEDFATYYCQRSYSAMYTFGQGTKLEIK
B3: C524 (antibody, V domains shown)
VH: EVQLVESGGDLIQPGGSLRLSCAASGFSVSNSYMSWVRQAPGKGLEWVSIIYSGGSTYYADSVKGRFTISRDNSKNTLYLQMNSLRAEDTAVYFCAKTPRGDYDSSGTSAYWGQGTLVTVSS
VL: QLVLTQSPSASASLGASVNLTCTLSSGHSSYAIAWHQQQPEKGPRFLMKLSSDGSHNKGDGIPDRFSGSSSGAERFLTISSLQSEDEADYYCQTWGIGSDWVFGGGTKLTVL
B4: C563 (antibody, V domains shown)
VH: EVQLVESGGGLVKPGGSLRLSCAASGFPFTNAWMSWVRQAPGKGLEWVGHIKDYTDGGTTDYAAPVKGKFTISRDDSKNTLYLHMNSLKTEDTAVYYCSTVGSYYYDSRGPTSDAFDIWGQGTLVTVSS
VL: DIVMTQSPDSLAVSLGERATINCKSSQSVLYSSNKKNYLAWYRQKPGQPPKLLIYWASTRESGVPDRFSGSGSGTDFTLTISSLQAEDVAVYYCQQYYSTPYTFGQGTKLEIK
B5: C550 (antibody, V domains shown)
VH: EVQLVQSGAEVKKPGESLKISCKGSGYRFTNYWIGWVRQMPGKGLEWMGIIYPGDSDTRYSPSFQGQVTISADKSITTAYLQWSSLKASDTAMYYCARLSDRWYSPFDPWGQGTLVTVSS
VL: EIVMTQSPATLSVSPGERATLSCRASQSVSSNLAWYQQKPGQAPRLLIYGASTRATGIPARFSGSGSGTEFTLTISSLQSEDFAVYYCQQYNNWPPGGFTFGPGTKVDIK
B6: C532 (antibody, V domains shown)
VH: B5 VH with M48I, I50N, Y52F, T58S, A72V, K74M, Q82H, M93I, D101E, P109S
VL: EIVMTQSPATLSVSPGERATLSCRASQSVSSNLAWYQQKPGQAPRLLIYGASTRATGFPARFSGSGSGTEFTLTISSLQSEDFAVYFCQQYNNWPPGGFTFGPGTKVDIK
B7: C534 (antibody, V domains shown)
VH: QVQLVQSGAEVKKPGSSVRVSCKASGGTFSRNVISWVRQAPGQGLEWMGGIIPMFATANYAQKFQGRVTITADESSSTAYMELSSLRSEDTAVYYCAREDFILVSAPIRENSYYYYGMDVWGQGTTVTVSS
VL: EIVLTQSPGTLSLSPGERATLSCRASQSVSSNYLAWYQQKPGQAPRLLIYDASSRATGIPDRFSGSGSGTDFTLTISRLEPEDFAVYYCQQYGGSPRTFGQGTKVEIK
B8: C555 (antibody, V domains shown)
VH: EVQLVESGGGLVKPGGSLRLSCAASGLTFSTTWMSWVRQAPGKGLEWVGRIKSKGDGGTTDFAGPVKGRFSISRDDSKNTLYLHMNSLKTEDTAVYYCTTDDPGSYYYGMDVWGQGTTVTVSS
VL: QTVVTQEPSLTVSPGGTVTLTCASSTGAVTSGHYPYWFQQKPGQAPRTLIYATSNKHSWTPARFSGSLLGGKAALTLSGAQPEDEADYYCLLSYSGARVFGGGTKLTVL
B9: C536 (antibody, V domains shown)
VH: QVQLVESGGGLVKPGRSLRLSCTVSGFTFGAYAMSWFRQAPGKGLEWVGFIRSKTYGGTTEYAASLKGRFTISRDDSKSIAFLQMNSLKTEDTAVYFCSRGGYYDGSPYYWNRPDAFDIWGLGTMVTVS
VL: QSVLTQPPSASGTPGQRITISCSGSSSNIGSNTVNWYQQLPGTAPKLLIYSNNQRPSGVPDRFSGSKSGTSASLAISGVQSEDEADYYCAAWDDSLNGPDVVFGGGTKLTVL
B10: C558 (antibody, V domains shown)
VH: EVQLVQSGAEVKKPGESLKISCKVSGYTFTNYWIGWVRQMPGKGLEWMGIIYPGDSDTRYSPSFQGQVTISADKSIITAYLQWSSLKASDTAMYYCARVPSSSDYGDYGGFEYWGQGTLVTVSS
VL: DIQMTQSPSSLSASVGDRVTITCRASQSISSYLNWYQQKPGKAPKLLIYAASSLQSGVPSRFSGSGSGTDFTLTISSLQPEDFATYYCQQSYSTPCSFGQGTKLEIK
B11: C559 (antibody, V domains shown)
VH: B10 VH with Y52F, K74R, I77T, S84R
VL: B2 VL with S28T, S30T, S31I, L79Q, R90Q, A94T, M95P, Y96C, T97S
B12: C523 (antibody, V domains shown)
VH: QVQLQESGPGLVKPSETLSLTCTVSGASISSHYWSWIRQPPGKGLEWIGYIHYIGSTNYNPSLKSRVTILLDTSKNQFSLRLRSVTAADTAVYYCARGWPYCGVDCYSGFDYWGQGTLVTVSS
VL: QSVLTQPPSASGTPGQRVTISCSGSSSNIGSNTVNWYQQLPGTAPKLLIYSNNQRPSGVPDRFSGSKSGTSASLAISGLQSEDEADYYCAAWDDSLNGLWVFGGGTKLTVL
B13: C564 (antibody, V domains shown)
VH: EVQLLESGGGLVQPGTSLRLSCAASGFTFSSYAMSWVRQAPGKGLEWVSAISSSGGSTYYADSVKGRFTISRDNSKNTLYLHMNSLRAEDTAVYYCATERIAVAGTRMYNWFDPWGQGTLVTVSS
VL: DIQMTQSPSSLSASVGDRVTLTCRASQSISSYLNWYQQKPGKAPNLLIYAASSLQSGVPSRFSGSGSGTDFTLTISSLQPEDFATYYCQQSYSAPPWTFGQGTKVEIK
B14: C546 (antibody, V domains shown)
VH: EVQLLESGGGLVHPGGSLRLSCAASGFTFSTYAMHWVRQAPGKGLEWVSAISGSGTGTFYADSVKGRFSISRDNSKNTLYLQMNSLRAEDTAVYYCATERIAVSDTRMYNWFDPWGQGTLVTVSS
VL: B13 VL with S28G, S31T
B15: C553 (antibody, V domains shown)
VH: QVQLVESGGGVVQPGRSLRLSCAASGFTFSNYEIHWVRQAPGKGLEWVAGISYDGSTKYYADSVKGRFTISRDNSKNTLYLQMNSLRPEDTAVFYCARAGTTNSDYFDYWGQGTLVTVSS
VL: SYELTQPPSVSVAPGMTARITCGGNTIGSKSVHWYQQKAGQAPVLVIYYDSDRPSGIPERFSGSNSGNTATLTISRVEAGDEADYYCQVWDSSSVLWVFGGGTKLTVL
B16: C533 (antibody, V domains shown)
VH: EVQLVESGGSLVKPGGSLRLSCVASGLTFNHAWMSWVRQAPGKGLEWVGRIKSKIDGGTTDYAAPVKGRFTISRDDSKSTQYLQMNSLKTEDTAVYYCTTDCFWRLGGTTCYEHDAFDVWGQGTMVTVSS
VL: DIQMTQSPSSLSASVGDRVTITCRASQAIATFLNWYQQKPGKAPKLLIYAASSLQSGVPSRFSGSGSGTDFTLTISNLQPEDFATYYCQQSYNSLHFGGGTKVEIK
B17: C538 (antibody, V domains shown)
VH: QLQLQESGPGLVKPSETLSLTCTVSGGSISSSSYYWAWIRQPPGKGLEWIGNIYYSGITYYSPSLKSRVTISVDTSKNQFSLKLRSVTAADTAVYYCARQHRYGSGSSELLWGQGTLVTVSS
VL: QSALTQPPSASGSPGQSVTISCTGTSSDVGSYNYVSWYQQHPGKAPKLMIYEVTKRPSGVPDRFSGSKSGNTASLTVSGLQADDEADYYCSSYAGSSNLIFGGGTKLTVL
B18: C556 (antibody, V domains shown)
VH: QVQLVQSGAEVKKPGASVKVSCKASGYTFTYYYMHWVRQAPGQGLEWMGIINPSGGSTSYAQKFQGRVTMTRDTSTSTVYMELSSLRSEDTAVYYCARPLLPGETGSLNRLDYWGQGTLVTVSS
VL: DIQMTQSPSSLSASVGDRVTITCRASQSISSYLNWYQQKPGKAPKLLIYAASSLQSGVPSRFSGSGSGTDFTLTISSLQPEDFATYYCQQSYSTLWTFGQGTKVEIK
B19: C560 (antibody, V domains shown)
VH: EVQLVESGGGLVQPGRSLRLSCAASGFTFDDYAMHWVRQAPGKGLEWVSGVSWNSGTIGYADSVKGRFTISRDNAKNSLYLQMNSLRAEDTALYYCAKIADIVRAYDFWSGQHFDAFDIWGQGTMVTVSS
VL: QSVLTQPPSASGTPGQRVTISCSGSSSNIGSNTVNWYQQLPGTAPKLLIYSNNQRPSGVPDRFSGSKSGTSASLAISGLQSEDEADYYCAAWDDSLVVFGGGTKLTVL
B20: C561 (antibody, V domains shown)
VH: B19 VH with M34I, T69F, L93W, I102L, R104G, W109R, D115A, I119V
VL: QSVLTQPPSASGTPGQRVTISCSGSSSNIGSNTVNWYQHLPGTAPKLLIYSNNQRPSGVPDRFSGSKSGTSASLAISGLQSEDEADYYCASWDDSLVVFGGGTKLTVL
B21: C525 (antibody, V domains shown)
VH: EVQLVESGGRLVQPGRSLRLSCAASGFTFDDYAIHWVRQAPGKGLEWVSGISWNSGSIGYADSVRGRFTISRDNAKNSLYLQMNSLRAEDTALYYCAKGLDSSSSASPDYWGQGTLVTVSS
VL: B1 VL with G28D, G30S, Y70D, T72I, G77S, A84G
B22: C530 (antibody, V domains shown)
VH: QVQLVESGGGVAQPGRSLRLSCAASGFTFSRYGMHWVRQAPGKGLEWVAVIWHDGSDKYCADFVKGRFTISRDNSKNTLYMQMDSLRAEDTAVYYCARGGRPDHETGIAVLGEYYFDSWGQGTLVTVSS
VL: SYELTQPPSVSVSPGQTARITCSGDAFPLQYGYWYQQKPGQAPVLVIYKDKERPSGISERFSGSSSGTTVTLTISGVQAEDEADYYCQSADTNGVVFGGGTSLTVL
B23: C529 (antibody, V domains shown)
VH: EVQLLESGGGLVQPGGSLRLSCAASGFTFNNYAMNWVRQAPGRGLEWVSGISGSGANTYYADSVKGRFTISRDNPKNTLSLQMNSLRAEDTALYYCAKVLSPTYYDSWSGPDAFDFWGQGTMVTVSS
VL: DIQMTQSPSTLSASVGDRVTITCRASQTISPWLAWYQQKPGKAPNLLIYKASSLESGVPSRFSGSGSGTEFTLTISSLQPDDFATYYCQQYNSYSSWTFGQGTKVEIK
B24: C528 (antibody, V domains shown)
VH: EVQLVESGGGLVQPGGSLRLSCAASGFTFRNYDMHWVRQVAGKGLEWVSAIGTSGDTYYPDSVKGRFTISRENAKNSVYLQMNNLRAGDTAVYFCVRDREISGWTGWYFDLWGRGTLVTVSS
VL: DIQMTQSPSSLSASVGDRVTITCRASQTIHNYLNWYQQIPGKAPRLLIYATNTLQSGVPSRFSGSGSGTDFTLTITGLQPEDFATYYCQQSYSTPPITFGQGTRLEIK
B25: C526 (antibody, V domains shown)
VH: QVQLVQSGAEVKKPGASVKVSCKASGHTFTTYYLHWVRQAPGQGLEWMGRIDPSGGSTTYAQKFQGRVTMTRDTSTSTVYMELSSLRSEDTALYYCARGGYCGSTSCSPDDYFDYWGQGTLVTVSS
VL: SYELTQPPSVSVAPGKTARITCGGNNIGSKSVHWYQQKPGQAPVLVIYYDSDRPSGIPERFSGSNSGNTATLTISRVEAGDEADYYCQVWDSSSDHYYVFGTGTKVTVL
B26: C527 (antibody, V domains shown)
VH: QVQLVESGGGVVQPGRSLRLSCAASGFTFSSYGMHWVRQAPGKGLEWVALIGYDGTDKYYAENVKGRFTISRDNSKNTLFLQMNSLRGGDTAVYLCARDGIPFRYGMDVWGQGTTVTVSS
VL: DIQMTQSPSTLSASVGDRVTITCRASQSIDIWLAWYQQKPGKAPKFLIHKASTLESGVPSRFSGSGSGTEFTLTISSLQPDDFATYYCQHYHSYSGTFGQGTKVEIK

The binders below were run against SARS-CoV-2 spike receptor binding domain (RBD), wild type (SARS-CoV-2, UniProt P0DTC2 319-539) (assay: ELISA, RBD protein coated, mAb titrated).

Binder | EC50 [ng/mL]
B1 | 2.46
B2 | 41.9
B3 | 5
B4 | 1.19
B5 | 2.56
B6 | 1
B7 | 4.85
B8 | 2.88
B9 | 1.88
B10 | 2.41
B11 | 2.89
B12 | 9.08
B13 | 14.6
B14 | 3.57
B15 | 1.19
B16 | 1.61
B17 | 3.94
B18 | 1.36
B19 | 1.6
B20 | 1.53

Biological target: SARS-CoV-2 spike receptor binding domain (RBD), wild type (SARS-CoV-2, UniProt P0DTC2 319-539)
Assay: ELISA, RBD protein coated, mAb titrated
Remark: another data set of the same source

Binder | EC50 [ng/mL]
B21 | 10.6
B22 | 10.5
B23 | 8
B24 | 5.66
B25 | 18.2
B26 | 13.4
